This is an account of results in patent publication US20210032664, “ENGINEERED MEGANUCLEASES WITH RECOGNITION SEQUENCES FOUND IN THE HUMAN BETA-2 MICROGLOBULIN GENE” (Precision Biosciences, Inc., published 2021).

What all share (assay): cell_activity; human T cells, 1 ug mRNA, day 3
Holding throughout (conditions): tags: N-terminal SV40 NLS

The target in data set [1] is T1, B2M 13-14x.556 (Artificial Sequence).
T1 chain: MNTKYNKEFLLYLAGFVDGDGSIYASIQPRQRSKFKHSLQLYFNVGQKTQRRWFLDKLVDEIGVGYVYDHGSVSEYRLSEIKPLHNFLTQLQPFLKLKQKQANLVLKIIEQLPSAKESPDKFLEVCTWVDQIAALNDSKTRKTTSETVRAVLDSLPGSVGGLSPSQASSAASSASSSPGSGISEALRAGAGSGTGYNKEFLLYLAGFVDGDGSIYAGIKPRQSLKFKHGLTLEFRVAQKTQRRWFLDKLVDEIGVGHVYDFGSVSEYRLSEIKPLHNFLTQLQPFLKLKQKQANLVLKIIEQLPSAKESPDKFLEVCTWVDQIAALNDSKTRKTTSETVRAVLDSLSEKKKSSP
The essentials: (§1)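 Donor T cells activated 3 days with anti-CD3/anti-CD28, then electroporated with 1 μg meganuclease mRNA. Knockout scored by loss of β-2 microglobulin surface staining on CD3+ cells.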

The target of data set [2] is T2, B2M 13-14x.325 (Artificial Sequence).
T2 chain: T1 chain with R32H, G217S, R221S, S223A, G229S, T231A, A237F, F261T, E266D
The essentials:
as §1

Data set [3] has as its target T3, B2M 13-14x.365 (Artificial Sequence).
T3 chain: T1 chain with R32H, G217S, S223R, G229Q, T231F, A237T, F261H
A digest of the protocol:
as §1

In data set [4] the target is T4, B2M 13-14x.464 (Artificial Sequence).
T4 chain: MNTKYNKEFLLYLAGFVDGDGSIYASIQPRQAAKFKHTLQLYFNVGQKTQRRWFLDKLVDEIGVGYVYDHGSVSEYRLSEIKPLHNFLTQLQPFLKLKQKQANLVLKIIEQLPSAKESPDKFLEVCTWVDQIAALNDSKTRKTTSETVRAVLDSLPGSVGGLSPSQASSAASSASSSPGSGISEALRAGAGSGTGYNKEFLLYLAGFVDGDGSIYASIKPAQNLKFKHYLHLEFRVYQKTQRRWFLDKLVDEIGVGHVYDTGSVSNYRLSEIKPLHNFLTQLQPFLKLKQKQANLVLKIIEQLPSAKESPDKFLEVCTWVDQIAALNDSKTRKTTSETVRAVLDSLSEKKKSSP
A digest of the protocol: as §1

In data set [5] the target is T5, B2M 13-14x.283 (Artificial Sequence).
T5 chain: T1 chain with R32H, G217S, R221G, S223R, G229Y, T231Y, A237I, F261M
A digest of the protocol: as §1

Data set [6] addresses T6, B2M 13-14x.377 (Artificial Sequence).
T6 chain: T4 chain with S217V, A221N, N223A, Y229T, H231S, Y237S, T261F, N266E
The essentials: as §1

Positions count from the first letter of the chain named. Names and notes keep the numbering of the source.

B1: B2M 13-14 recognition sequence (dsDNA)
DNA 1: CTATCTCTTGTACTACACTGAA
DNA 2: TTCAGTGTAGTACAAGAGATAG
For the molecule B1, the activity is 11.8 % B2M-negative in data set [1]; 14.4 % B2M-negative in data set [2]; 27.4 % B2M-negative in data set [3]; 8.24 % B2M-negative in data set [4]; 49.3 % B2M-negative in data set [5]; 75.9 % B2M-negative in data set [6].
